Reference: the Human Domainome abundance scans (Beltran et al. 2025)
± gives the uncertainty stated by the source.

B1: Far upstream element-binding protein 1, residues 98 to 169; numbered along this chain, Q96AE4 (parent)
chain: RSVMTEEYKVPDGMVGFIIGRGGEQISRIQQESGCKIQIAPDSGGLPERSCMLTGTPESVQSAKRLLDQIVE

Variants of: B1
Experiment: abundance fitness (aPCA) (normalised: wild type 0, dead -1); higher = more abundant; growth selection in yeast, the domain comes from the species named
Details: Homo sapiens

Variant | abundance fitness
RSVMTEEYKVPDGMVGFIIGRGGEQISRCQQESGCKIQIAPDSGGLPERSCMLTGTPESVQSAKRLLDQIVE [I29C] | -0.179 ± 0.041
RSVMTEEYKVPDGMVGFIIGRGGEQISRPQQESGCKIQIAPDSGGLPERSCMLTGTPESVQSAKRLLDQIVE [I29P] | -0.906 ± 0.073
RSVMTEEYKVPDGMVGFIIGRGGEQISRGQQESGCKIQIAPDSGGLPERSCMLTGTPESVQSAKRLLDQIVE [I29G] | -0.943 ± 0.035
RSVMTEEYKVPDGMVGFIIGRGGEQISRNQQESGCKIQIAPDSGGLPERSCMLTGTPESVQSAKRLLDQIVE [I29N] | -0.787 ± 0.09
RSVMTEEYKVPDGMVGFIIGRGGEQISREQQESGCKIQIAPDSGGLPERSCMLTGTPESVQSAKRLLDQIVE [I29E] | -0.781 ± 0.04
RSVMTEEYKVPDGMVGFIIGRGGEQISRMQQESGCKIQIAPDSGGLPERSCMLTGTPESVQSAKRLLDQIVE [I29M] | -0.042 ± 0.034
RSVMTEEYKVPDGMVGFIIGRGGEQISRSQQESGCKIQIAPDSGGLPERSCMLTGTPESVQSAKRLLDQIVE [I29S] | -0.682 ± 0.039
RSVMTEEYKVPDGMVGFIIGRGGEQISRHQQESGCKIQIAPDSGGLPERSCMLTGTPESVQSAKRLLDQIVE [I29H] | -0.423 ± 0.11
RSVMTEEYKVPDGMVGFIIGRGGEQISRDQQESGCKIQIAPDSGGLPERSCMLTGTPESVQSAKRLLDQIVE [I29D] | -0.935 ± 0.083
RSVMTEEYKVPDGMVGFIIGRGGEQISRRQQESGCKIQIAPDSGGLPERSCMLTGTPESVQSAKRLLDQIVE [I29R] | -0.876 ± 0.038
RSVMTEEYKVPDGMVGFIIGRGGEQISRQQQESGCKIQIAPDSGGLPERSCMLTGTPESVQSAKRLLDQIVE [I29Q] | -0.915 ± 0.12
RSVMTEEYKVPDGMVGFIIGRGGEQISRKQQESGCKIQIAPDSGGLPERSCMLTGTPESVQSAKRLLDQIVE [I29K] | -0.881 ± 0.065
RSVMTEEYKVPDGMVGFIIGRGGEQISRFQQESGCKIQIAPDSGGLPERSCMLTGTPESVQSAKRLLDQIVE [I29F] | -0.144 ± 0.053
RSVMTEEYKVPDGMVGFIIGRGGEQISRAQQESGCKIQIAPDSGGLPERSCMLTGTPESVQSAKRLLDQIVE [I29A] | -0.226 ± 0.03
RSVMTEEYKVPDGMVGFIIGRGGEQISRYQQESGCKIQIAPDSGGLPERSCMLTGTPESVQSAKRLLDQIVE [I29Y] | -0.246 ± 0.05
RSVMTEEYKVPDGMVGFIIGRGGEQISRTQQESGCKIQIAPDSGGLPERSCMLTGTPESVQSAKRLLDQIVE [I29T] | -0.211 ± 0.034
RSVMTEEYKVPDGMVGFIIGRGGEQIQRIQQESGCKIQIAPDSGGLPERSCMLTGTPESVQSAKRLLDQIVE [S27Q] | 0.027 ± 0.04
RSVMTEEYKVPDGMVGFIIGRGGEQICRIQQESGCKIQIAPDSGGLPERSCMLTGTPESVQSAKRLLDQIVE [S27C] | -0.042 ± 0.04
RSVMTEEYKVPDGMVGFIIGRGGEQIVRIQQESGCKIQIAPDSGGLPERSCMLTGTPESVQSAKRLLDQIVE [S27V] | -0.017 ± 0.027

Variant | abundance fitness
RSVMTEEYKVPDGMVGFIIGRGGEQILRIQQESGCKIQIAPDSGGLPERSCMLTGTPESVQSAKRLLDQIVE [S27L] | -0.054 ± 0.031
RSVMTEEYKVPDGMVGFIIGRGGEQIWRIQQESGCKIQIAPDSGGLPERSCMLTGTPESVQSAKRLLDQIVE [S27W] | -0.057 ± 0.031
RSVMTEEYKVPDGMVGFIIGRGGEQIMRIQQESGCKIQIAPDSGGLPERSCMLTGTPESVQSAKRLLDQIVE [S27M] | -0.025 ± 0.038
RSVMTEEYKVPDGMVGFIIGRGGEQIARIQQESGCKIQIAPDSGGLPERSCMLTGTPESVQSAKRLLDQIVE [S27A] | 0.024 ± 0.027
RSVMTEEYKVPDGMVGFIIGRGGEQITRIQQESGCKIQIAPDSGGLPERSCMLTGTPESVQSAKRLLDQIVE [S27T] | -0.003 ± 0.032
RSVMTEEYKVPDGMVGFIIGRGGEQIERIQQESGCKIQIAPDSGGLPERSCMLTGTPESVQSAKRLLDQIVE [S27E] | 0.007 ± 0.033
RSVMTEEYKVPDGMVGFIIGRGGEQIDRIQQESGCKIQIAPDSGGLPERSCMLTGTPESVQSAKRLLDQIVE [S27D] | -0.046 ± 0.041
RSVMTEEYKVPDGMVGFIIGRGGEQIYRIQQESGCKIQIAPDSGGLPERSCMLTGTPESVQSAKRLLDQIVE [S27Y] | -0.07 ± 0.047
RSVMTEEYKVPDGMVGFIIGRGGEQIKRIQQESGCKIQIAPDSGGLPERSCMLTGTPESVQSAKRLLDQIVE [S27K] | 0.036 ± 0.037
RSVMTEEYKVPDGMVGFIIGRGGEQIRRIQQESGCKIQIAPDSGGLPERSCMLTGTPESVQSAKRLLDQIVE [S27R] | 0.014 ± 0.024
RSVMTEEYKVPDGMVGFIIGRGGEQINRIQQESGCKIQIAPDSGGLPERSCMLTGTPESVQSAKRLLDQIVE [S27N] | -0.042 ± 0.051
RSVMTEEYKVPDGMVGFIIGRGGEQIPRIQQESGCKIQIAPDSGGLPERSCMLTGTPESVQSAKRLLDQIVE [S27P] | -0.198 ± 0.036
RSVMTEEYKVPDGMVGFIIGRGGEQIIRIQQESGCKIQIAPDSGGLPERSCMLTGTPESVQSAKRLLDQIVE [S27I] | -0.055 ± 0.057
RSVMTEEYKVPDGMVGFIIGRGGEQIHRIQQESGCKIQIAPDSGGLPERSCMLTGTPESVQSAKRLLDQIVE [S27H] | -0.012 ± 0.056
RSVMTEEYKVPDGMVGFIIGRGGEQIGRIQQESGCKIQIAPDSGGLPERSCMLTGTPESVQSAKRLLDQIVE [S27G] | -0.016 ± 0.023
RSVMTEEYKVPDGMVGFIIGRGGEYISRIQQESGCKIQIAPDSGGLPERSCMLTGTPESVQSAKRLLDQIVE [Q25Y] | -0.132 ± 0.046
RSVMTEEYKVPDGMVGFIIGRGGEWISRIQQESGCKIQIAPDSGGLPERSCMLTGTPESVQSAKRLLDQIVE [Q25W] | -0.145 ± 0.028
RSVMTEEYKVPDGMVGFIIGRGGESISRIQQESGCKIQIAPDSGGLPERSCMLTGTPESVQSAKRLLDQIVE [Q25S] | -0.023 ± 0.028
RSVMTEEYKVPDGMVGFIIGRGGEVISRIQQESGCKIQIAPDSGGLPERSCMLTGTPESVQSAKRLLDQIVE [Q25V] | -0.07 ± 0.027
